Consider 4 molecules from PMC6053351, “Structural and biochemical insights into human zinc finger protein AEBP2 reveals interactions with RBBP4”.

The series deals with AEBP2 ZF1-3 (Homo sapiens, UniProt Q6ZN18 258-357). The series can be described thus: fluorescence polarization; FPA with dsDNA: 25 mM Tris pH 7.4, 150 mM salt (salt identity and rest truncated in material), 50 nM FAM-DNA, 200 ul; G3A4 buffer and temperature not given in material. The conditions noted are these: protein: recombinant, tags: His6. In general terms: In fluorescence polarisation assays a small probe gives low polarisation when free and higher when bound to something large.

Setting [1] is: label: 5'-FAM on sense strand, blunt.

AEBP2 ZF1-3, sequence (Q6ZN18 258-357): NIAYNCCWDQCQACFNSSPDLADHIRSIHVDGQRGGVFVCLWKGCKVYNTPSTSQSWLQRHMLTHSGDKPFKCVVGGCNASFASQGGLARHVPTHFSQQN

B1: T1 (dsDNA)
DNA 1: GATCTTTAGTTAACTTCCTCTCTGTCTGCAGGCCACTCCAGATC
DNA 2: GATCTGGAGTGGCCTGCAGACAGAGAGGAAGTTAACTAAAGATC
Take B1: under setting [1], the binding result was “no binding”.

B2: GC-rich (dsDNA)
DNA 1: GCGGCCCGCGCCCGCCGCCCCGCCGCGGCCCGCGCGGCCCGCGC
DNA 2: GCGCGGGCCGCGCGGGCCGCGGCGGGGCGGCGGGCGCGGGCCGC
As to B2, under setting [1], the binding result is “no binding”.

B3: AT-rich (dsDNA)
DNA 1: ATAATTTATATTTATTATTTTATTATAATTTATATAATTTATAT
DNA 2: ATATAAATTATATAAATTATAATAAAATAATAAATATAAATTAT
With B3, the binding result under setting [1] is listed as “no binding”.

B4: G3A4 (structured_DNA)
DNA: AAAAAAGGGAAAAGGGAAAAGGGAAAAGGGAAAAAAAAAA
For B4, under “label: 5'-FAM, G4”, the binding result was “no binding”.
